This note sets out measurements from patent US20240000932A1 (BOOSTIMMUNE, published 2024).

This experiment has as its target T1, recombinant human TCTP (translationally controlled tumor protein) (human, UniProt P13693 1-172).
T1 construct: The ELISA is only said to be 'on TCTP', and the screening beads were coated with human TCTP; also called HRF; Tpt1
T1 sequence: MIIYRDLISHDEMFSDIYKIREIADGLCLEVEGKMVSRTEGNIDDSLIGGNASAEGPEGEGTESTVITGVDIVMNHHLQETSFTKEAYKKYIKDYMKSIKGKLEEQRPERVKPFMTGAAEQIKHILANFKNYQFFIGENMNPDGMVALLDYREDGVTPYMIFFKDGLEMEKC
In words: ELISA on TCTP, after single B cell screening with human TCTP coated beads. The method, then: Transgenic mice for preparing fully human antibodies (CAMOUSE®) were immunized by using a recombinant human TCTP (SEQ ID NO: 36), and standard single B cell screening method was used. Single viable B cell arrays were prepared by applying splenocyte of immunized mice to microarray chips. TCTP-specific antibody secreting single cells were screened on the microarray chip using human TCTP coated beads and then recovered by micromanipulation, mRNA were recovered from the single cells, and cDNA sequences encoding the variable regions of the IgG heavy (VH) and light (VL) chains were amplified by RT-PCR. The recombinant antibodies containing the VH and VL sequences are purified and tested by ELISA on TCTP. As a result, antibody 1-2-4 was obtained. The variable region sequences of antibody 1-2-4 are as follows. The antibody sequences for 1-2-4 were obtained from CAMOUSE® in cooperation with CAMAB (China) and GenScript (China).
(In general: An ELISA detects its analyte on a solid surface through an enzyme-linked reagent.)

B1: anti-TCTP human monoclonal antibody 1-2-4 (antibody, V domains shown)
VH: QVQLVQSGAEVKKPGASVKVSCKASGYTFFSYAMHWVRQAPGQRLEWMGWINAGNGNTKYSQKFQDRVTITRDTSATTAYMELSSLRSEDTAVYYCASWVFDYWGQGTPVTVSS
VL: DIVMTQTPLSSLVTLGQPASISCRSSQSLVHRDGNTYLSWLQQRPGQPPRLLIYKISNRFFGVPDRFSGSGAGTDFTLKISRVEAEDVGVYYCMQATQFPHTFGQGTKLEIK
As to B1, the binding result is “binds”.
